The source of these data is patent publication US20190247381A1.

The target in this test is FLAG-HA-Atoh1 (Mus musculus (Mouse)) (UniProt P48985). Briefly: IP-MS: immunoprecipitation of Atoh1 and its associated binding partners, excised gel band, mass spectrometry.

TUBA1A (from UniProt Q71U36) had a Total peptide of 112 peptides.

Take EEF1A1 (from UniProt P68104): the Total peptide was 103 peptides.

With RBMX (from UniProt P38159), the Total peptide is 65 peptides.

Molecule TUBA4A (from UniProt P68366) came in with a Total peptide of 1 peptides.

The molecule AAMP (from UniProt Q13685) gave a Total peptide of 1 peptides.

As for PSMC2 (from UniProt P35998), the Total peptide was found to be 50 peptides.

Take PRPS1 (from UniProt P60891): the Total peptide was found to be 3 peptides.

As for PDE4B (from UniProt Q07343), the Total peptide is 1 peptides.

TUBA1C (from UniProt Q9BQE3) showed a Total peptide of 7 peptides.

Take PRDX4 (from UniProt Q13162): the Total peptide turned out to be 1 peptides.

For TUBB2A (from UniProt Q13885), the Total peptide was found to be 159 peptides.

As to TUBB2B (from UniProt Q9BVA1), the Total peptide was found to be 2 peptides.

Molecule ENO1 (from UniProt P06733) yielded a Total peptide of 62 peptides.

For the molecule PSMC5 (from UniProt P62195), the Total peptide was found to be 52 peptides.

Take “CK1ε (CSNK1E), endogenous in 293T cells (from UniProt P49674) (enzyme)”: the Total peptide is 6 peptides.

As to BCKDHA (from UniProt P12694), the Total peptide turned out to be 5 peptides.

Turning to “CK1δ (CSNK1D), endogenous in 293T cells (from UniProt P48730) (enzyme)”, the Total peptide is 7 peptides.

B1: YARS2 (protein)
chain: TLNLSVLLPLGLRKAHSGAQGLLAAQKARGLFKDFFPETGTKIELPELFDRGTASFPQTIYCGFDPTADSLHVGHLLALLGLFHLQRAGHNVIALVGGATARLGDPSGRTKEREALETERVRANARALRLGLEALAANHQQLFTDGRSWGSFTVLDNSAWYQKQHLVDFLAAVGGHFRMGTLLSRQSVQLRLKSPEGMSLAEFFYQVLQAYDFYYLFQRYGCRVQLGGSDQLGNIMSGYEFINKLTGEDVFGITVPLITSTTGAKLGKSAGNAVWLNRDKTSPFELYQFFVRQPDDSVERYLKLFTFLPLPEIDHIMQLHVKEPERRGPQKRLAAEVTKLVHGREGLDSAKRCTQALYHSSIDALEVMSDQELKELFKEAPFSEFFLDPGTSVLDTCRKANAIPDGPRGYRMITEGGVSINHQQVTNPESVLIVGQHILKNGLSLLKIGKRNFYIIKWLQL
B1: the Total peptide worked out at 11 peptides.

B2: SERPINH1 (protein)
chain: AEVKKPAAAAAPGTAEKLSPKAATLAERSAGLAFSLYQAMAKDQAVENILVSPVVVASSLGLVSLGGKATTASQAKAVLSAEQLRDEEVHAGLGELLRSLSNSTARNVTWKLGSRLYGPSSVSFADDFVRSSKQHYNCEHSKINFRDKRSALQSINEWAAQTTDGKLPEVTKDVERTDGALLVNAMFFKPHWDEKFHHKMVDNRGFMVTRSYTVGVMMMHRTGLYNYYDDEKEKLQIVEMPLAHKLSSLIILMPHHVEPLERLEKLLTKEQLKIWMGKMQKKAVAISLPKGVVEVTHDLQKHLAGLGLTEAIDKNKADLSRMSGKKDLYLASVFHATAFELDTDGNPFDQDIYGREELRSPKLFYADHPFIFLVRDTQSGSLLFIGRLVRPKGDKMRDEL
Regarding B2, the Total peptide was 9 peptides.

B3: ACOX1 (protein)
chain: MNPDLRRERDSASFNPELLTHILDGSPEKTRRRREIENMILNDPDFQHEDLNFLTRSQRYEVAVRKSAIMVKKMREFGIADPDEIMWFKKLHLVNFVEPVGLNYSMFIPTLLNQGTTAQKEKWLLSSKGLQIIGTYAQTEMGHGTHLRGLETTATYDPETQEFILNSPTVTSIKWWPGGLGKTSNHAIVLAQLITKGKCYGLHAFIVPIREIGTHKPLPGITVGDIGPKFGYDEIDNGYLKMDNHRIPRENMLMKYAQVKPDGTYVKPLSNKLTYGTMVFVRSFLVGEAARALSKACTIAIRYSAVRHQSEIKPGEPEPQILDFQTQQYKLFPLLATAYAFQFVGAYMKETYHRINEGIGQGDLSELPELHALTAGLKAFTSWTANTGIEACRMACGGHGYSHCSGLPNIYVNFTPSCTFEGENTVMMLQTARFLMKSYDQVHSGKLVCGMVSYLNDLPSQRIQPQQVAVWPTMVDINSPESLTEAYKLRAARLVEIAAKNLQKEVIHRKSKEVAWNLTSVDLVRASEAHCHYVVVKLFSEKLLKIQDKAIQAVLRSLCLLYSLYGISQNAGDFLQGSIMTEPQITQVNQRVKELLTLIRSDAVALVDAFDFQDVTLGSVLGRYDGNVYENLFEWAKNSPLNKAEVHESYKHLKSLQSKL
For B3, the Total peptide turned out to be 5 peptides.

B4: SSB (protein)
chain: MAENGDNEKMAALEAKICHQIEYYFGDFNLPRDKFLKEQIKLDEGWVPLEIMIKFNRLNRLTTDFNVIVEALSKSKAELMEISEDKTKIRRSPSKPLPEVTDEYKNDVKNRSVYIKGFPTDATLDDIKEWLEDKGQVLNIQMRRTLHKAFKGSIFVVFDSIESAKKFVETPGQKYKETDLLILFKDDYFAKKNEERKQNKVEAKLRAKQEQEAKQKLEEDAEMKSLEEKIGCLLKFSGDLDDQTCREDLHILFSNHGEIKWIDFVRGAKEGIILFKEKAKEALGKAKDANNGNLQLRNKEVTWEVLEGEVEKEALKKIIEDQQESLNKWKSKGRRFKGKGKGNKAAQPGSGKGKVQFQGKKTKFASDDEHDEHDENGATGPVKRAREETDKEEPASKQQKTENGAGDQ
The molecule B4 registered a Total peptide of 65 peptides.
